Reference: patent US20180282403A1, “AGENTS FOR REDUCING THE ACTIVITY OF GDF15” (GENAGON THERAPEUTICS AB, priority 2015, published 2018)

Key:
Format in all cases: cell-based
QRFPR [1] = test: In situ PLA detection of QRFPR at the cell surface in U2OS osteosarcoma cells; settings: U2OS cells, GDF15 alone; FIG. 9E
Description: A-D) In situ PLA detection of the Rab11-QRFPR complex following exposure of MCF7 cells to GDF15. A) +Ctrl peptide. B) +QRFPR extracellular N-terminal peptide. C-D) +QRFPR extracellular loop3 (domain 4) peptide. The level of the Rab11-QRFPR complex is reduced by the peptide from extracellular loop3 of QRFPR. E) in situ PLA detection of QRFPR in U2OS osteosarcoma cells.
We choose to use this assay as a way to investigate if the activity of GDF15 could be inhibited by various agents. […] GDF15-induced formation of RAB11/QRFPR endosomes is inhibited by QRFPR peptides (FIG. 9A-D). Equal amounts of a mastermix of GDF15 was aliquoted and pre-incubated in PBS with the various receptor fragment before addition to cells. Sequentially, the cells were treated with either PBS, GDF15 or GDF15/QRFPR-derived peptide mixes.

QRFPR [2] = target: T1, QRFPR (Homo sapiens, UniProt Q96P65); test: In situ PLA detection of RAB4-QRFPR double positive endosomes; settings: GDF15 stimulation alone; FIG. 7
T1 construct: endogenous in cells
T1 sequence (Q96P65 1-431): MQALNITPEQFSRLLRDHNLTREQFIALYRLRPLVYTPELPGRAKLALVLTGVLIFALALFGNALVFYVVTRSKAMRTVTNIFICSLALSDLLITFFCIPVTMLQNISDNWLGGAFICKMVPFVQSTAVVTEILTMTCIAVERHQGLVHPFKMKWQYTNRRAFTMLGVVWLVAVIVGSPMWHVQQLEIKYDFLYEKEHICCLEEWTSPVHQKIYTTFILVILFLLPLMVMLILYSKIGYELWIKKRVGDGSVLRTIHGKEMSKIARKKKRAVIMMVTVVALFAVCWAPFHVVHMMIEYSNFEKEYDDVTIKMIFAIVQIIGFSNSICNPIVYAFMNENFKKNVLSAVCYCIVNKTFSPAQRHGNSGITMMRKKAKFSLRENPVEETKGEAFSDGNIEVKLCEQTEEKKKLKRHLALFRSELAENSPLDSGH
Procedure: An assay was developed to detect the proximity of RAB4-QRFPR using antibodies against RAB4 and QRFPR.
In short, the cells were serum starved overnight then pre-incubated with blocking antibodies towards extracellular parts of QRFPR for 2 hrs prior to GDF15 treatment (1 μg/ml) for 30 minutes. The levels of formed RAB4-QRFPR complexes were measured by visualization of formed RCA products using the Duolink is PLA system (see FIG. 11).

CLPTM1 = target: T2, CLPTM1 (Homo sapiens, UniProt O96005); test: Detection of phosphorylated GSK3b (9/21) in NK-92 cells (in situ PLA, Western blot); settings: GDF15 in the presence of control antibody, FIG. 16
T2 construct: endogenous in cells; host or cells: NK-92 cells
T2 sequence (O96005 1-669): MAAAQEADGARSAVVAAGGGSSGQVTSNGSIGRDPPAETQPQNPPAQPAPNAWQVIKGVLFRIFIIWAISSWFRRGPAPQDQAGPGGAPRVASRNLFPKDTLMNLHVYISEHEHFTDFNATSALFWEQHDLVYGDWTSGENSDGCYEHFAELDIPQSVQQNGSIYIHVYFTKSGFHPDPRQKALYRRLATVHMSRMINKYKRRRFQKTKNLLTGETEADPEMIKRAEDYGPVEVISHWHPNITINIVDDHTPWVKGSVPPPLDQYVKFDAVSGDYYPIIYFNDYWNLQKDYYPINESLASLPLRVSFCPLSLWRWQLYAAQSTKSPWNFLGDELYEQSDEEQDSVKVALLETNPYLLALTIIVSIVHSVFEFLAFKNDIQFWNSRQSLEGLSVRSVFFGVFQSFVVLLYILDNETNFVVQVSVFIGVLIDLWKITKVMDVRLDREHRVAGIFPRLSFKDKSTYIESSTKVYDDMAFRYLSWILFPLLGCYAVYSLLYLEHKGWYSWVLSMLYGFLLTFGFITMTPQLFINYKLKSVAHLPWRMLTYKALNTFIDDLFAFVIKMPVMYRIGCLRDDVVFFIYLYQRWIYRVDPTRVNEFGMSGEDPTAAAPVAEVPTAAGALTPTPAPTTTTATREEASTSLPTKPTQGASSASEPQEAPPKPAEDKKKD
Procedure: A-C) In situ PLA detection of phosphorylated GSK3b (GSK3b-p(9/21) using a pair of proximity probes A) Negative control cells with no added GDF15. B) Cells after exposure to GDF15 and control antibody. C) Cells after exposure to GDF15 following pre-incubation with a monoclonal antibody targeting the extracellular domain of CLPTM1 D) Western Blot indicating the levels of phosphorylated GSKb (p-GSKb). Lane 1—No GDF15. Lane 2—GDF15 stim+ ctrl ab. Lane 3 GDF15 stim+ mAb mouse (antibody used in in situ PLA experiment).
The effect of antibodies binding CLPTM1 on inhibiting GDF15 induced downstream signalling through the TGFB heterotetrameric complex was assessed by detecting phosphorylated GSK3b-pGSK3b(9/21) in an in situ PLA assay. Phosphorylation of GSK3b is known to cause immunosuppressive effects i.e. suppress immune cell function.

QRFPR [3] = target: T1, QRFPR; test: In situ PLA detection of EEA1-QRFPR proximity; settings: GDF15 5 min; FIG. 3C-D
Description: […] (EEA1) is a marker for rapid endosome formation, and an assay was developed to detect the proximity of EEA1 and QRFPR. In the absence of GDF15, no signal was obtained (FIG. 3C).

SMAD2 = test: Detection of phosphorylated SMAD2 in NK-92 cells; settings: GDF15 40 min
Procedure: GDF15 has been reported in the literature to mediate downstream signalling resembling both the canonical (SMAD) pathway mediated by ALK5(TGFBRI) kinase domain, and non-canonical TGFβ receptor signalling, such as phosphorylation of GSK3b. In order to investigate if CLPTM1 was involved in this we developed a set of in situ PLA assays to determine the dynamics between CLPTM1 and the TGFβ receptors and components downstream of the TGFβ receptors. NK-92 cells were treated with GDF15 for 40 min to detect phosphorylated SMAD proteins such as SMAD2 in the nucleus. […] From previous experiments with TGFB1 stimulation we know that the assay (pSMAD2) was functional.

## GDF15: Growth and differentiation factor 15, from mammalian source or recombinant from E. coli (Abcam, Biovision)
QRFPR [1]
  level of QRFPR at the cell surface: reduced by GDF15
QRFPR [2]
  RAB4-QRFPR double positive endosomes: formation of RAB4-QRFPR double positive endosomes was detected
CLPTM1
  9/21 phosphorylation of GSK3b: induces 9/21 phosphorylation of GSK3b
QRFPR [3]
  EEA1-QRFPR proximity (RCA products): increase the number of RCA products
SMAD2
  c-terminal phosphorylated SMAD 2: failed to detect c-terminal phosphorylated SMAD 2
